Results as given in the supplement of paper PMC12764529.
± gives the half width of the 95% confidence interval.

How the values were obtained:
[1] = folding stability dG unfold from trypsin proteolysis; higher = more stable
Method in brief: (§1)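 Designed mini-proteins with no cysteine and under 80 residues were kept only if AlphaFold2 dimer inter-PAE was above 15. In a PA-tagged cDNA display construct, they were digested with trypsin and chymotrypsin and then sequenced. K50 was inferred by Bayesian fitting of counts, and unfolding free energy was derived per protease or combined against a sequence-predicted unfolded-state K50 and a shared folded-state K50.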

[2] = folding stability dG unfold from chymotrypsin proteolysis; higher = more stable
Method in brief: as §1

[3] = folding stability dG unfold (combined trypsin and chymotrypsin); higher = more stable
Method in brief: as §1

Sequence | folding stability dG unfold [1] [kcal/mol] | folding stability dG unfold [2] [kcal/mol] | folding stability dG unfold [3] [kcal/mol]
SAGGSAGGSAEVFIVKFSDPAKLKAFMEKLGLSYEKGDNPKITNPEEFLKNLPLVKNVVVTKKSAGGSAGGS [r12_571_JUSTAS] | 0.286 ± 0.12 | 0.54 ± 0.14 | 0.423 ± 0.057
SAGGSAGGSAEVPKPGEAKPVLVTSSFTIPLPNGGTLEITTVDLVDVATGTVTPRVEVRSLDSAGGSAGGSA [r18_123_TrMRF] | -0.786 ± 0.33 | -0.991 ± 0.88 | < -1
SAGGSAGGSAFTIHDLKLNKVEVHPDGTVTYHLEVTLPSGEKLKVVVLVDPRKPSLATFYFSSAGGSAGGSA [r18_97_TrMRF] | 2.31 ± 0.2 | 3.31 ± 0.057 | 2.94 ± 0.13
SAGGSAGGSAFVWNPDTGTFIQLDPNDGTIEVFEIENDNDGKLEPIGTVEVDPDDPDKGTITSAGGSAGGSA [r18_448_TrROS] | 1.75 ± 0.13 | 1.23 ± 0.069 | 1.5 ± 0.1
SAGGSAGGSAGAEIKIKKVEKKDSKLKLILPDGRIYEVKKDKKKSNSIKKIKIKKLPPLKSAGGSAGGSAGG [r17_173_JUSTAS] | 0.113 ± 0.34 | -0.181 ± 0.59 | -0.0549 ± 0.47
SAGGSAGGSAGAKVKVFKVRAEVKLTRTADGELVAEVTEVEIEEVEVEVRPPPPPPLPPASAGGSAGGSAGG [r11_381_TrROS_Hall] | 1.67 ± 0.24 | 3.11 ± 0.14 | 2.92 ± 0.35
SAGGSAGGSAGAPPGSTVTVTYTVTTTVTDRVPDGPGFTNPHTLTSTVTTTVNVGHPDLVSAGGSAGGSAGG [r11_734_TrMRF] | 0.833 ± 0.058 | 0.00274 ± 0.17 | 0.585 ± 0.12
SAGGSAGGSAGAPTVKLTFTVTRTETKTETLPDGTTKTETKTETRTVTLTLAPGETITVTSAGGSAGGSAGG [r11_174_TrROS_Hall] | 3.39 ± 0.084 | 4.27 ± 0.077 | 3.98 ± 0.11
SAGGSAGGSAGASLKEELGFAEVLSRSPTPDTEPLLLKHPEGGELVTVEVDAATAVEWLESAGGSAGGSAGG [r11_630_JUSTAS] | 0.343 ± 0.091 | 0.424 ± 0.17 | 0.354 ± 0.24
SAGGSAGGSAGASPTAPAVTVEVKTEEVPNNDLLKTTTTTYFPGTGTTVTTETILPPGLGSAGGSAGGSAGG [r11_746_JUSTAS] | 0.187 ± 0.053 | -0.269 ± 0.086 | -0.00225 ± 0.12
SAGGSAGGSAGATISPDGYKIVVTNADGEKVTLTFDSLEEAKAALEALLPPGARVFIEKVSAGGSAGGSAGG [r11_983_TrROS_Hall] | 0.529 ± 0.035 | 2.009 ± 0.011 | 1.61 ± 0.031
SAGGSAGGSAGDDGDKKPEVKVKVKIEPTIIPSPNGELMLMWTLEIEYPGNGEKREFTFMSAGGSAGGSAGG [r17_59_TrROS] | 1.33 ± 0.071 | 1.92 ± 0.13 | 1.58 ± 0.17
SAGGSAGGSAGDENEKPKPKMQMKMIQIKFPPEDLPELAEEFGIDSVHIMPNGSLFIMVYSAGGSAGGSAGG [r11_64_TrROS] | 1.07 ± 0.11 | 1.48 ± 0.1 | 1.36 ± 0.18
SAGGSAGGSAGDEWITIWFLFPSPEQAKDIADPLASNGLNIDVETHRMPDGNYWVNITIPSAGGSAGGSAGG [r11_677_TrROS] | 2.21 ± 0.092 | 3.34 ± 0.089 | 2.9 ± 0.11
SAGGSAGGSAGDGMIEVKVEFERLFFDENGNVTKKEKVDEIIKVPPVTIDTSTGKLTPLPSAGGSAGGSAGG [r17_413_JUSTAS] | 0.261 ± 0.051 | 0.229 ± 0.021 | 0.284 ± 0.073
SAGGSAGGSAGDLLKEALEEAKKAGIKTATITVEVDGKLYTLTVKLEPKPPPKEVKVEKKSAGGSAGGSAGG [r17_475_TrROS_Hall] | -0.977 ± 0.51 | 0.814 ± 0.17 | 0.526 ± 0.38
SAGGSAGGSAGDNYVMITHTIPFPPGEPLEIKIPPGAKIDDIDPERDPGNGTITVSIWFRSAGGSAGGSAGG [r11_701_TrROS] | 0.491 ± 0.24 | 0.879 ± 0.17 | 0.73 ± 0.25
SAGGSAGGSAGDPVLTVTLLDDNHPVTLTYHPGEKTVTVSVYPLKSGKVLGTVTVPASELSAGGSAGGSAGG [r11_231_TrMRF] | -1.45 ± 0.71 | 0.37 ± 0.13 | -0.0506 ± 0.12

Sequence | folding stability dG unfold [1] [kcal/mol] | folding stability dG unfold [2] [kcal/mol] | folding stability dG unfold [3] [kcal/mol]
SAGGSAGGSAGDWIKFEYTFKWNFFDPDGDLLMNMTVRVTIEIPIPPVPKPVKPSPNDDNSAGGSAGGSAGG [r17_325_TrROS] | 3.52 ± 0.13 | 5.4 ± 0.15 | 5.34 ± 0.22
SAGGSAGGSAGEEKETLTLVLPLEDMSPEEIAKLLEAAGYKVTVEEKDGLLVVKIERKPPSAGGSAGGSAGG [r11_707_TrROS_Hall] | 2.57 ± 0.08 | 2.855 ± 0.017 | 2.77 ± 0.065
SAGGSAGGSAGEFEIIIPPGVAEERPELLEEIRDRFKPLGLEVEVEYIPGEGYVRVKVKGSAGGSAGGSAGG [r11_357_TrMRF] | 1.36 ± 0.061 | 1.64 ± 0.036 | 1.55 ± 0.11
SAGGSAGGSAGEFELLSVEYFPPIGRVRVAYRRGDLVLVVDFFNPENPEIRPVSLSDELGSAGGSAGGSAGG [r17_145_TrMRF] | 2.64 ± 0.067 | 2.48 ± 0.057 | 2.59 ± 0.18
SAGGSAGGSAGEFEPVPVLTLPGLDDREVRVVLFKDPPLVLLEVEGAPYVLPAEELLRLASAGGSAGGSAGG [r11_370_TrMRF] | -0.19 ± 0.09 | 1.26 ± 0.13 | 0.856 ± 0.12
SAGGSAGGSAGEIENPSLLSQIVPRKVKVTTEIRKLPNGSYETVTTVTYGSTTTTTTSSGATSAGGSAGGSA [r18_335_JUSTAS] | 0.163 ± 0.048 | -0.256 ± 0.15 | 0.0269 ± 0.096
SAGGSAGGSAGEIVEVDGKLYIRVRTKDGEWKLIEMSADEIASLPAENVEEVEIVDPKDLSAGGSAGGSAGG [r11_779_TrROS_Hall] | 2.6 ± 0.1 | 3.16 ± 0.075 | 3.08 ± 0.11
SAGGSAGGSAGELSLEEIKKLAPDETAVVKLPPSPETIVITVSTNPNGTLKIEIKRYPPGSAGGSAGGSAGG [r11_13_JUSTAS] | 0.566 ± 0.037 | 0.657 ± 0.03 | 0.674 ± 0.1
SAGGSAGGSAGELTVTVTVLLEDGTAVKIEARFELDENGNLHLEVKVEVVKLPELSPEDLSAGGSAGGSAGG [r11_728_TrROS_Hall] | 3.4 ± 0.43 | 2.25 ± 0.2 | 2.74 ± 0.32
SAGGSAGGSAGEPEIEIEVEERDGELVLRARVRDRETGEEYEVVVRVRPDGPIEITEIRPSAGGSAGGSAGG [r17_113_TrROS_Hall] | 3.11 ± 0.13 | 2.55 ± 0.13 | 2.72 ± 0.13
SAGGSAGGSAGEPEYVRVRIRVRRRVRNKETGKWEEKEVELTLVFPSKEEALKALEELGLSAGGSAGGSAGG [r11_984_TrROS_Hall] | 3.99 ± 0.083 | 4.049 ± 0.037 | 4.02 ± 0.051
SAGGSAGGSAGEPKLILVEVEGYPDPESNLVYVEFPNGDIATFAVDSAAPDQPVLVLVNPSAGGSAGGSAGG [r11_621_TrMRF] | 0.378 ± 0.044 | -0.0185 ± 0.065 | 0.28 ± 0.045
SAGGSAGGSAGEPVEVTPLSTETVPDSDTTVTYYKVTYPGGKEAIRTVYSDGTETTTPLPSAGGSAGGSAGG [r11_637_JUSTAS] | 0.915 ± 0.12 | 1.02 ± 0.1 | 0.969 ± 0.17
SAGGSAGGSAGERLTADELRKLAEELGLPAEITVERKEDGTYTVTITVDGKTYKIEIKLDSAGGSAGGSAGG [r11_410_TrROS_Hall] | 2.38 ± 0.096 | 3.44 ± 0.1 | 3.16 ± 0.15
SAGGSAGGSAGETVTLTLTVTVTRTYYDAETGEEVEQETETRTLTLTMSKEELERLLKELSAGGSAGGSAGG [r17_283_TrROS_Hall] | 3.28 ± 0.13 | 4.66 ± 0.11 | 4.44 ± 0.17
SAGGSAGGSAGEVEFELTVKLTVTHPSGGKSEIEVPVKITLPVVDISKEILESNPEVVKKANSAGGSAGGSA [r18_114_TrMRF] | 0.486 ± 0.11 | -0.964 ± 0.33 | -0.108 ± 0.3
SAGGSAGGSAGEVEIEITKVTENEDGSETLEMTIRDKDTGKTYKLTFNKDNGILTLEEEPSAGGSAGGSAGG [r11_991_TrROS_Hall] | 1.93 ± 0.13 | 3.05 ± 0.097 | 2.43 ± 0.2
